The values that follow come from paper PMC5441565 (Nature, 2017).

One assay concerns the target GFP-LacI-53BP1 (human) (UniProt Q12888). As to the kind of experiment: LacO/LacI tethering.
The target of assay [1] is mCherry-LacI-TIRR (human) (UniProt Q9BRJ7). Briefly: LacO/LacI tethering.
Assay [2] has as its target TIRR-His (recombinant TIRR) (human, UniProt Q9BRJ7 1-211). As to the kind of experiment: ITC. A general note: In ITC the heat of successive injections is recorded.

A word on the Kd: it is the constant that tells how readily two partners part at equilibrium. Broadly, the stoichiometry N is a count of units in the complex or per binding partner.

Chain of TIRR-His (recombinant TIRR) (Q9BRJ7 whole entry): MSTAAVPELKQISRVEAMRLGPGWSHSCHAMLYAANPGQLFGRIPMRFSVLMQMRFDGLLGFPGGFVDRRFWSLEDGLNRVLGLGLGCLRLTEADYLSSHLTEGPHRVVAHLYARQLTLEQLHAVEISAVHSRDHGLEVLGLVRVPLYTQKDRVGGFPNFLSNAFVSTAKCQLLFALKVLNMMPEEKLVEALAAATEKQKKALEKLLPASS
Chain of GFP-LacI-53BP1 (human) (Q12888 whole entry): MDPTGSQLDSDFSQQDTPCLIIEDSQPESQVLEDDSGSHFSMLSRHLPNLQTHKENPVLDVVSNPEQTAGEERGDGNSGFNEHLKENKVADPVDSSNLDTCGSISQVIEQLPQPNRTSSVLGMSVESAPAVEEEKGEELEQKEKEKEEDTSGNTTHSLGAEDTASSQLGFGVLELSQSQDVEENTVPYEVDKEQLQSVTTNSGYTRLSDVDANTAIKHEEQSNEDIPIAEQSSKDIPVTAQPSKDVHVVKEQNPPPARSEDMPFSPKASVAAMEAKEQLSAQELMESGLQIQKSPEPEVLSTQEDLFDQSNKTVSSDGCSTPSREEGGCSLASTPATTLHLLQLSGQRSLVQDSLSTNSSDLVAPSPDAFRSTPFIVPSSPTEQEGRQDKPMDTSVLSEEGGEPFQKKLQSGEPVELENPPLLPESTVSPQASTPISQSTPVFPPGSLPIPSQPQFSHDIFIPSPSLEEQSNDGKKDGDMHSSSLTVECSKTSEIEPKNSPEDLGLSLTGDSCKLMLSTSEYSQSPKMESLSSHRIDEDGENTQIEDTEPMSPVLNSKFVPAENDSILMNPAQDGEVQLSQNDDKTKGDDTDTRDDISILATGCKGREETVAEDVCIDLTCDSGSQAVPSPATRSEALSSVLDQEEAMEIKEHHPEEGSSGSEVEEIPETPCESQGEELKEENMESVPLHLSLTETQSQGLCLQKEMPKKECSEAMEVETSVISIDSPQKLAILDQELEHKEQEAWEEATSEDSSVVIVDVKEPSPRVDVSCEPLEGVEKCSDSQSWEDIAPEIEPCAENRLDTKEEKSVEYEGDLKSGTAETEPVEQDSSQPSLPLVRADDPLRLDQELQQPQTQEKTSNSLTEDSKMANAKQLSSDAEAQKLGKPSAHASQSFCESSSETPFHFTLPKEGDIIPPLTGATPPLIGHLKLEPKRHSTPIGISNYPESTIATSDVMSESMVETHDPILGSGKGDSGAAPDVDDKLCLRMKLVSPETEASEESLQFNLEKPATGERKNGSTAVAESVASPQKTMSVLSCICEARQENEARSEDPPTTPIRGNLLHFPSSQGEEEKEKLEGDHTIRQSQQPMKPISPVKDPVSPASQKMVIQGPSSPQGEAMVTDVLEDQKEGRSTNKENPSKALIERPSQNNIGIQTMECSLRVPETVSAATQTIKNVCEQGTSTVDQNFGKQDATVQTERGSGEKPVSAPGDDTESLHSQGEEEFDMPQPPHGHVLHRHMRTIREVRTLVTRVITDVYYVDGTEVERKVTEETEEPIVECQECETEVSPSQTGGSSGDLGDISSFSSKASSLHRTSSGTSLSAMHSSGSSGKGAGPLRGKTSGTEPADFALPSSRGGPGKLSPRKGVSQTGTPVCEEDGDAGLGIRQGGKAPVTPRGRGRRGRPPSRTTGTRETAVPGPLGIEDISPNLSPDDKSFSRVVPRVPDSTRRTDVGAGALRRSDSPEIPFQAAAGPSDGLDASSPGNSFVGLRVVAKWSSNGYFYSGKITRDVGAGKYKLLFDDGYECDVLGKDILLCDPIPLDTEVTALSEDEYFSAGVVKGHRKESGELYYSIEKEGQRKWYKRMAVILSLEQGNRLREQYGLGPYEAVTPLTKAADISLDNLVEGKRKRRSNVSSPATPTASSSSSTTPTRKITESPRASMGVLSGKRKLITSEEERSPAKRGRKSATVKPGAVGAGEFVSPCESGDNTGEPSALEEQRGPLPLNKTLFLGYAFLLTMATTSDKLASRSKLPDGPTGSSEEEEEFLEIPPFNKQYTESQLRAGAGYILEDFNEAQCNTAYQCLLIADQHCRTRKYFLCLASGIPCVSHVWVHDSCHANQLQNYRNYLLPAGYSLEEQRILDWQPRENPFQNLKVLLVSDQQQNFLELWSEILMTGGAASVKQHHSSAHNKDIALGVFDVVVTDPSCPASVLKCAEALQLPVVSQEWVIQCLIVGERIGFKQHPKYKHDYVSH
Chain of mCherry-LacI-TIRR (human) (Q9BRJ7 whole entry): as the sequence (Q9BRJ7 whole entry) above

In turn, “mCherry-TIRR (from UniProt Q9BRJ7 1-211) (natural protein)” registered a percent of cells with co-localisation on the LacO array (% of the cells) with GFP-LacI-53BP1 (human) of 72.

Take “53BP1 (P53-binding protein 1), endogenous (from UniProt Q12888 1-1972) (natural protein)”: the percent of cells with co-localisation on the LacO array (% of the cells) in assay [1] was 57.5.

B1: 53BP1 tandem Tudor domain (for ITC and NMR) (domain or fragment)
chain: NSFVGLRVVAKWSSNGYFYSGKITRDVGAGKYKLLFDDGYECDVLGKDILLCDPIPLDTEVTALSEDEYFSAGVVKGHRKESGELYYSIEKEGQRKWYKRMAVILSLEQGNRLREQYGLG
modifications: 15N-labelled for NMR; limits from PDB 2G3R (GHM tag remnant left out)
B1: in assay [2], the equilibrium dissociation constant (Kd) amounted to 790 nM and the “stoichiometry N” value is 1.
